The assay has as its target Angiomotin (Amot80) coiled-coil homology (ACCH) domain, wild type. Description: SEC.

The values below come from article PMC6547806.

One may read the stoichiometry N as the number of molecules, sites or subunits per partner or assembly. Regarding “Angiomotin (Amot80) coiled-coil homology (ACCH) domain, wild type (domain or fragment)”, the stoichiometry N was 4.
